From EP1506972A1 (Genentech Inc., dated 2005)
Where a chain is given by its changes, count along the chain named.

Legend:
Assay in all cases: competitive phage ELISA, soluble IGFBP-1 vs coated IGFBP-1
[1] = target: T1, IGF-I L14A (G1S-A70V background) displayed on phage (human; bacteriophage M13)
T1 construct: not shown: M13 gene III fragment (residues 249-406, display carrier) and the IGF-g3 junction
T1 chain: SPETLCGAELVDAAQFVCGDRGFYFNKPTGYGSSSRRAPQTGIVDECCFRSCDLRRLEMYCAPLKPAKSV

[2] = target: T2, IGF-I E46A (G1S-A70V background) displayed on phage (human; bacteriophage M13)
T2 construct: not shown: Display carrier: M13 gene III protein fragment (residues 249-406) and the junction to it
T2 chain: T1 chain with A14L, E46A

[3] = target: T3, IGF-I K68A (G1S-A70V background) displayed on phage (human; bacteriophage M13)
T3 construct: not shown: Display carrier: M13 gene III protein fragment (residues 249-406) and its junction to Val70

[4] = target: T4, IGF-I P66A (G1S-A70V background) displayed on phage (human; bacteriophage M13)
T4 construct: not shown: Display carrier: M13 gene III protein fragment (residues 249-406) and its junction to Val70

[5] = target: T5, IGF-I E3A (G1S-A70V background) displayed on phage (human; bacteriophage M13)
T5 construct: not shown: Display carrier: M13 gene III protein fragment (residues 249-406) and its junction to Val70

[6] = target: T6, IGF-I K27A (G1S-A70V background) displayed on phage (human; bacteriophage M13)
T6 construct: not shown: Display carrier: M13 gene III protein fragment (residues 249-406) and the junction to it
T6 chain: T1 chain with A14L, K27A

[7] = target: T7, IGF-I Q15A (G1S-A70V background) displayed on phage (human; bacteriophage M13)
T7 construct: not shown: M13 gene III fragment (residues 249-406, display carrier) and the IGF-g3 junction
T7 chain: T1 chain with A14L, Q15A

[8] = target: T8, IGF-I V17A (G1S-A70V background) displayed on phage (human; bacteriophage M13)
T8 construct: not shown: M13 gene III fragment (residues 249-406, display carrier) and the IGF-g3 junction
T8 chain: T1 chain with A14L, V17A

[9] = target: T9, des(1-2)-IGF-I displayed on phage (human; bacteriophage M13)
T9 construct: range 249-406; Lacks positions 1 and 2

[10] = target: T10, IGF-I T4A (G1S-A70V background) displayed on phage (human; bacteriophage M13)
T10 construct: not shown: The display carrier: M13 gene III protein fragment (residues 249-406) and the junction to it
T10 chain: T1 chain with T4A, A14L

[11] = target: T11, IGF-I Y31A (G1S-A70V background) displayed on phage (human; bacteriophage M13)
T11 construct: not shown: Display carrier: M13 gene III protein fragment (residues 249-406) and the junction to it
T11 chain: T1 chain with A14L, Y31A

[12] = target: T12, IGF-I L64A (G1S-A70V background) displayed on phage (human; bacteriophage M13)
T12 construct: not shown: M13 gene III fragment (residues 249-406), the display partner, and its junction to IGF-I
T12 chain: T1 chain with A14L, L64A

[13] = target: T13, IGF-I R55A (G1S-A70V background) displayed on phage (human; bacteriophage M13)
T13 construct: not shown: Display carrier: M13 gene III protein fragment (residues 249-406) and the junction to it
T13 chain: T1 chain with A14L, R55A

[14] = target: T14, IGF-I Y60A (G1S-A70V background) displayed on phage (human; bacteriophage M13)
T14 construct: not shown: M13 gene III fragment (residues 249-406), the display partner, and its junction to IGF-I
T14 chain: T1 chain with A14L, Y60A

[15] = target: T15, IGF-I S1G (single mutant of G1S-A70V) displayed on phage (human; bacteriophage M13, UniProt P05019 49-117)
T15 construct: not shown: Display carrier: M13 gene III protein fragment (residues 249-406) and its junction to Val70

[16] = target: T16, IGF-I T29A (G1S-A70V background) displayed on phage (human; bacteriophage M13)
T16 construct: not shown: Display carrier: M13 gene III protein fragment (residues 249-406) and the junction to it
T16 chain: T1 chain with A14L, T29A

[17] = target: T17, IGF-I D12A (G1S-A70V background) displayed on phage (human; bacteriophage M13)
T17 construct: not shown: M13 gene III fragment (residues 249-406, display carrier) and the IGF-g3 junction
T17 chain: T1 chain with D12A, A14L

[18] = target: T18, IGF-I G30A (G1S-A70V background) displayed on phage (human; bacteriophage M13)
T18 construct: not shown: Display carrier: M13 gene III protein fragment (residues 249-406) and the junction to it
T18 chain: T1 chain with A14L, G30A

[19] = target: T19, IGF-I L5A (G1S-A70V background) displayed on phage (human; bacteriophage M13)
T19 construct: not shown: The display carrier: M13 gene III protein fragment (residues 249-406) and the junction to it
T19 chain: T1 chain with L5A, A14L

B1: human IGFBP-1 (other, UniProt P08833 26-259, looked up)
chain: APWQCAPCSAEKLALCPPVSASCSEVTRSAGCGCCPMCALPLGAACGVATARCARGLSCRALPGEQQPLHALTRGQGACVQESDASAPHAAEAGSPESPESTEITEEELLDNFHLMAPSEEDHSILWDAISTYDGSKALHVTNIKKWKEPCRIELYRVVESLAKAQETSGEEISKFYLPNCNKNGFYHSRQCETSMDGEAGLCWCVYPWNGKRIPGSPEIRGDPNCQIYFNVQN
notes: Secreted recombinant protein
- relative IC50 (IC50mut/IC50 G1S-A70V) [1]: 4.5 fold
- relative IC50 (IC50mut/IC50 G1S-A70V) [2]: 1 fold
- relative IC50 (IC50mut/IC50 G1S-A70V) [3]: 1.3 fold
- relative IC50 (IC50mut/IC50 G1S-A70V) [4]: 1.1 fold
- relative IC50 (IC50mut/IC50 G1S-A70V) [5]: 33.9 fold
- relative IC50 (IC50mut/IC50 G1S-A70V) [6]: 1.6 fold
- relative IC50 (IC50mut/IC50 G1S-A70V) [7]: 1.7 fold
- relative IC50 (IC50mut/IC50 G1S-A70V) [8]: 5.2 fold
- relative IC50 (IC50mut/IC50 G1S-A70V) [9]: 0.6 fold
- relative IC50 (IC50mut/IC50 G1S-A70V) [10]: 2.4 fold
- relative IC50 (IC50mut/IC50 G1S-A70V) [11]: 0.8 fold
- relative IC50 (IC50mut/IC50 G1S-A70V) [12]: 1.5 fold
- relative IC50 (IC50mut/IC50 G1S-A70V) [13]: 1.1 fold
- relative IC50 (IC50mut/IC50 G1S-A70V) [14]: 0.8 fold
- relative IC50 (IC50mut/IC50 G1S-A70V) [15]: 1.4 fold
- relative IC50 (IC50mut/IC50 G1S-A70V) [16]: 0.9 fold
- relative IC50 (IC50mut/IC50 G1S-A70V) [17]: 0.5 fold
- relative IC50 (IC50mut/IC50 G1S-A70V) [18]: 0.9 fold
- relative IC50 (IC50mut/IC50 G1S-A70V) [19]: 6.7 fold
